One assay addresses CD123 (UniProt P26951 19-378, limits assumed). The assay can be described thus: cell-based or functional assay.
Assay [1] addresses T1, folate receptor alpha (FR-α) (human, UniProt P15328 25-234).
T1 construct: whole, on cells; also called FOLR1; human folate receptor 1
The assay can be described thus: FACS on T47D cells.
Protocol: T47D cells were then resuspended in growth media (see above) to neutralize trypsin, and were counted on a Coulter counter. Cells were then washed twice in cold FACS buffer, centrifuging in between washes at 1200 rpm for 5 min.
About 100 μl/mL of 2×10⁴ cells/well were added to wells containing ADC, antibody or FACS buffer only, and incubated at 4° C. for 2 hr. After incubation, cells were centrifuged as before and washed once in 200 μL/well cold FACS buffer. Cells were then stained with 200 μL/well FITC-conjugated Goat Anti-Human-IgG-Fcγ secondary antibody (controls included were unstained cells and those stained with secondary antibody only) for 40 min at 4° C., centrifuged and washed once in 200 μL/well cold PBS-D. Cells were fixed in 200 μL/well 1% formaldehyde/PBS-D and stored at 4° C.
After storage, cellular surface staining of conjugate or antibody was detected using flow cytometry on a FACS Calibur (BD Biosciences). The geometric means were plotted against the log concentration of ADC or antibody using GraphPad Prism and the EC₅₀ was calculated via non-linear 4-parameter logistic regression analysis.

The target of assay [2] is T1, folate receptor alpha (FR-α). The experiment in a line: cell-based or functional assay.

T1 sequence (P15328 25-234): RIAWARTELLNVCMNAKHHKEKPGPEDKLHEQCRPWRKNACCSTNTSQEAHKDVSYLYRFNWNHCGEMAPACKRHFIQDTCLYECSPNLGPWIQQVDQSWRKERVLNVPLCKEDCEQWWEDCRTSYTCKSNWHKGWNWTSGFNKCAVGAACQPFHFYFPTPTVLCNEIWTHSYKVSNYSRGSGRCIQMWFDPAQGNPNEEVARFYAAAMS
Sequence of CD123 (P26951 19-378 limits assumed): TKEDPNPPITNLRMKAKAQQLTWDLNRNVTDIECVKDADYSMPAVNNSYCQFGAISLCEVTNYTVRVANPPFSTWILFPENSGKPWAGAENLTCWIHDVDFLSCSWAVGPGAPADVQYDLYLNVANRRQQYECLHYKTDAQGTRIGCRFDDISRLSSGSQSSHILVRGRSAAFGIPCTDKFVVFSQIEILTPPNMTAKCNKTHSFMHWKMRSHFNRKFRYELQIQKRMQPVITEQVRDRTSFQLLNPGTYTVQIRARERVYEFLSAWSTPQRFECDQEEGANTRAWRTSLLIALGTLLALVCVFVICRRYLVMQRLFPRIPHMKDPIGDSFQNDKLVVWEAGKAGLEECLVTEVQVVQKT

B1: huCD123-6Rv1.1S2-SeriMab-D8 (antibody, V domains shown)
VH: SFQLVQSGAEVVKPGASVKMSCKASGYTFTSSIMHWMKQKPGQGLEWIGYIKPYNDGTKYNQKFQGKATLTSDKSSSTANMELNSLTSEDSAVYYCAREGGNDYYDTMDYWGQGTSVTVSS
VL: DIQMTQSPSSMSASVGERVTITCRASQDINSYLSWFQQKPGKSPKTLIYRVNRLVDGVPSRFSGSGSGQDYSLTISSLEPEDMGIYYCLQYDAFPYTFGQGTKLEIKR
Turning to B1, in the assay with CD123, the “IC50 of cytotoxicity on HNT-34 cells (WST-8)” value is ~2 pM, the “IC50 of cytotoxicity on MOLM-1 cells (WST-8)” value is ~30 pM, the “IC50 of cytotoxicity on SHI-1 cells (WST-8)” value was ~10 pM and the “loss of cytotoxicity when CD123 is blocked by unconjugated huCD123-6 antibody” value worked out at 100 fold.

B2: huMOV19-NTS #2 (antibody)
heavy: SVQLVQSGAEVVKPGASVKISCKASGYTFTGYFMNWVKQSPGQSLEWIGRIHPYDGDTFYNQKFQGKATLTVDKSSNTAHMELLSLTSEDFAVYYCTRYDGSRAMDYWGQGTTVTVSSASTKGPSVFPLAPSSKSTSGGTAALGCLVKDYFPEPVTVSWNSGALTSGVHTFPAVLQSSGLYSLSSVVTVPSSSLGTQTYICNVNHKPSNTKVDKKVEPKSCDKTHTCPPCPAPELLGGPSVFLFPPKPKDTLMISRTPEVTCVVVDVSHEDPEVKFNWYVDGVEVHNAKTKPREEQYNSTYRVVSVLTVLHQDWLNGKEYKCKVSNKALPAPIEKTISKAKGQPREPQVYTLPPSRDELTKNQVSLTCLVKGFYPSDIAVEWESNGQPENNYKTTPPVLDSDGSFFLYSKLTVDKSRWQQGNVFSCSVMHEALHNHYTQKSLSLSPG
light: DIVLTQSPLSLAVSLGQPAIISCKASQSVSFAGTSLMHWYHQKPGQQPRLLIYRASNLEAGVPDRFSGSGSKTDFTLTISPVEAEDAATYYCQQSREYPYTFGGGTKLEIKRTVAAPSVFIFPPSDEQLKSGTASVVCLLNNFYPREAKVQWKVDNALQSGNSQESVTEQDSKDSTYSLSSTLTLSKADYEKHKVYACEVTHQGLSSPVTKSFNRGEC
notes: huMOV19 with the heavy chain N-terminal Gln replaced by Ser (huMov19 HC NTS2); also called SeriMab; huMOV19-SeriMab antibody
For B2, the binding result in assay [1] is reported as “binds”.

B3: huMOV19 (antibody, human IgG1, kappa)
heavy: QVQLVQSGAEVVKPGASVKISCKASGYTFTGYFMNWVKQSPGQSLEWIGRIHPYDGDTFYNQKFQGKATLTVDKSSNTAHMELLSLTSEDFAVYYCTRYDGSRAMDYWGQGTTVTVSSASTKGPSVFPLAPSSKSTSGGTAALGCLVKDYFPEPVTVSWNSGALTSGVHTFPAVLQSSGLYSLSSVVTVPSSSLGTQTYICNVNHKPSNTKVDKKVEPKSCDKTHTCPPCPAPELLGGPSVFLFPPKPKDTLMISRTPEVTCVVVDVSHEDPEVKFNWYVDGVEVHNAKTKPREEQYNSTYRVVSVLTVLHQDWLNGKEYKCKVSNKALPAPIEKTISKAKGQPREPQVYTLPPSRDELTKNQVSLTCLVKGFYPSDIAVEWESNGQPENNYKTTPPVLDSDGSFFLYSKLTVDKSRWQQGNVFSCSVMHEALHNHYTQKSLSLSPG
light: B2 light
notes: Humanized anti-folate receptor alpha IgG1/kappa; also called M9346A; unconjugated native huMOV19 antibody
Consider B3, for which the binding result in assay [1] is “binds”.

B4: huMOV19-NTS #2-Linker1-Compound A (antibody)
heavy: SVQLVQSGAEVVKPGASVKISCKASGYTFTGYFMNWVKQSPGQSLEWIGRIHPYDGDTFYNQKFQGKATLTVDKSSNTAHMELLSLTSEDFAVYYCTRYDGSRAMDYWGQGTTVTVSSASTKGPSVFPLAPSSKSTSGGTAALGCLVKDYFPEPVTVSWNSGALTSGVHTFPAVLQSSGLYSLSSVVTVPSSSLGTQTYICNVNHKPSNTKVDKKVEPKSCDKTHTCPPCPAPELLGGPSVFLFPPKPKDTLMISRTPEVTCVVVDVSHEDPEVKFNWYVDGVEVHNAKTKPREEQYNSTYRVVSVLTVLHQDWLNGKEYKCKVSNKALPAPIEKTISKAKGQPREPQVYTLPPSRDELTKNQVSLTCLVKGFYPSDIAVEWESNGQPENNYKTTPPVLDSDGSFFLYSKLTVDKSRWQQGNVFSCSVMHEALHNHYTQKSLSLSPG
light: B2 light
modifications: N-terminal Ser oxidized to an aldehyde and linked through Linker1 to Compound A (sulfonated DGN462); two Compound A molecules per antibody
As to B4, in assay [2], the “cytotoxicity on KB cells (WST-8), potency against the lysine-conjugated ADC, by Compound A concentration” value was ~5 fold and the “cytotoxicity on KB cells (WST-8), potency against the lysine-conjugated ADC, by antibody concentration” value was ~3 fold.

The values above are taken from patent US20240190956A1 (IMMUNOGEN, published 2024).
